This data set can be described thus: protein stability index of a GFP-peptide fusion (GPS, HEK-293T) (PSI 1-6); higher = more stable.
[1] abbreviates: treatment: DMSO, c terminus: a fixed tail appended.
Where [2] appears, read: treatment: MLN4924 1 uM, 8 h, c terminus: a fixed tail appended.

± gives the standard deviation.
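Further: 24-mer peptide tiles fused after GFP, lentivirally expressed, FACS-sorted into six equal bins by GFP/DsRed ratio, decoded by Illumina sequencing, PSI is the read-weighted mean bin number.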

The sequence TPVILVGCQLDLRYADLEAVNRAR [RHOBTB1] registered a protein stability index under setting [1] of 2.46 ± 0.09 and a protein stability index under setting [2] of 2.34 ± 0.39. For the sequence TQCSEEDQCKINKQIYNLIHLDPR [FEM1B], the protein stability index is 3.48 ± 0.12 under setting [1] and 3.4 ± 0.28 under setting [2].

Take TQLFIGGVTGWCTGFIFQKVGKLA [FUNDC2]: the protein stability index under setting [1] came to 2.33 ± 0.39 and the protein stability index under setting [2] amounted to 2.32 ± 0.28.

Consider TRLYLRSHRPNMELCRDAAQFRLL [TEKT4], for which the protein stability index is, setting by setting: under setting [1], 2.16 ± 0.44; under setting [2], 2.27 ± 0.32. TSIVYATEKKQTKVEFPEARIYEE [KCTD10]: the protein stability index reads like this: under setting [1], 4.5 ± 0.12; under setting [2], 4.21 ± 0.55. On the same counts, the results for TSPSPERSLLLKYARTPTLDPDTM [TRIM14] are 3.89 ± 0.66 and 4.29 ± 0.32.

TTCSTPLLNSPPSFVCWSRGFMEM [AUP1]: the protein stability index under setting [1] worked out at 2.21 ± 0.26 and the protein stability index under setting [2] was found to be 2.33 ± 0.31. On to TTGLQVPSAVRCLQKRGSATSSSN [FSD1], for which the protein stability index by setting is: under setting [1], 4.13 ± 0.12; under setting [2], 3.99 ± 0.14. The like results for TTHFQSIPDAFWWAVVTMTTVGYG [KCNA4] were, in that order, 3.05 ± 0.88 and 2.96 ± 0.33. TVCDDKWDLVSASVVCRELGFGSA [LOXL2]: the protein stability index runs as follows: under setting [1], 2.54 ± 0.49; under setting [2], 2.7 ± 0.2. Take TVLTRHSQPATPTPLQSRTSIVQA [PDLIM7]: the protein stability index reads like this: under setting [1], 3.77 ± 0.093; under setting [2], 3.8 ± 0.28. Consider TVLVSVTVFDANDNAPVFTLPEYR [PCDHGA10], for which the protein stability index reads like this: under setting [1], 2.76 ± 0.43; under setting [2], 2.58 ± 0.36. With TWWRVRNAANRTGYVPSNYVERKN [NCK2], the protein stability index is, setting by setting: under setting [1], 2.86 ± 0.14; under setting [2], 3.06 ± 0.27. On to VAALVVNFSQPVAGRPSLLRHDEV [NLN], for which the protein stability index came to 2.46 ± 0.49 under setting [1] and 2.48 ± 0.36 under setting [2]. On to VAREYYSEADASHCIQQILEAVLH [CAMK2B], for which the protein stability index worked out at 2.29 ± 0.3 under setting [1] and 2.87 ± 0.49 under setting [2]. For the sequence VASAPLQPPVPSLSEVKPPPPPPP [TRADD], the protein stability index by setting is: under setting [1], 5.02 ± 0.15; under setting [2], 4.71 ± 0.34. In the case of VDDLSVEWDAMGGKVQDIKAREKD [FSD1], the protein stability index runs as follows: under setting [1], 5.41 ± 0.33; under setting [2], 5.5 ± 0.43. The like results for VDTLTFQSQSLRDRARRFEEALRK [MTUS2] were, in that order, 4.08 ± 0.2 and 4.14 ± 0.22.

In turn, VELPIVDSLHPRPPYLPLAVPEDL [FUT8] displayed a protein stability index under setting [1] of 4.24 ± 0.31 and a protein stability index under setting [2] of 4.54 ± 0.22. On the same counts, the results for VENGDFNWIVPGKFLAFSGPHPKS [CDC14A] are 2.76 ± 0.41 and 2.92 ± 0.43. The like results for VGDALEEVLSKALSQRTITVGVYE [GADD45A] were, in that order, 2.54 ± 0.19 and 2.47 ± 0.56. On the same counts, the results for VGKGEILASLQDGAAESPYGHPAG [RAB40B] are 4.66 ± 0.24 and 4.76 ± 0.2. VGSVSVDCGPSRADRCSPKEDQAW [FBXO34]: the protein stability index runs as follows: under setting [1], 3.66 ± 0.25; under setting [2], 4.06 ± 0.33. On the same counts, the results for VHGIRSVGTAAVNMCLVATGGADA [IMPA1] are 2.78 ± 0.35 and 2.93 ± 0.39. VIDILPNCVSSVYLYYDPDYSFLS [ATE1]: the protein stability index worked out at 3.35 ± 0.49 under setting [1] and 3.1 ± 0.77 under setting [2]. For the sequence VKMFYSFQDKRNLYLIMEFLPGGD [STK38L], the protein stability index runs as follows: under setting [1], 3.11 ± 0.85; under setting [2], 3.29 ± 0.4. Turning to VKYPELVLEHSLDREEEAIHHLVL [PCDHGA10], the protein stability index under setting [1] stood at 2.6 ± 0.096 and the protein stability index under setting [2] was 2.63 ± 0.36.

For VLGGNLQGGELVVAYPYDLVRSPW [CPXM2], the protein stability index is, setting by setting: under setting [1], 2.13 ± 0.12; under setting [2], 2.48 ± 0.48. For VLKYFSHYMEENLMDGGDLPSVTD [PLK2], the protein stability index runs as follows: under setting [1], 2.75 ± 0.52; under setting [2], 2.67 ± 0.64. The like results for VLLGWTLHYFPFFLMGRVLYFHHY [POMT2] were, in that order, 2.96 ± 0.29 and 2.91 ± 0.42. The like results for VLNVAGEAGGKQKAVEEELDAEDR [SLC6A17] were, in that order, 5.72 ± 0.17 and 5.69 ± 0.16. Consider VMYTIHMGCHGFRDPFECNMCGYH [IKZF1], for which the protein stability index runs as follows: under setting [1], 2 ± 0.45; under setting [2], 2.4 ± 1.3.

On to VNLQHLDLLNNKLVTLPVSFAQLK [LRRC59], for which the protein stability index is 2.12 ± 0.23 under setting [1] and 2.31 ± 0.3 under setting [2].

As to VNRFGTYPALASKNGKKWEILNFN [ACSBG2], the protein stability index by setting is: under setting [1], 2.81 ± 0.28; under setting [2], 2.71 ± 0.49.

Turning to VNYTQGLWEKVMPSRYAAIYNGGV [SLC19A2], the protein stability index is, setting by setting: under setting [1], 2.33 ± 0.18; under setting [2], 2.21 ± 0.47.

Turning to VPAQKFSALTFLRVDQDKDKDCSL [SMOC2], the protein stability index by setting is: under setting [1], 4.19 ± 0.3; under setting [2], 4.52 ± 0.31. On the same counts, the results for VPHWINSNTLGFGTEQAPYGMQTQ [ETS2] are 2.58 ± 0.41 and 2.88 ± 0.22.

Sequence VPVSFIFIFTFVKKKKIGFYFEVC [PCDHGA10] yielded a protein stability index under setting [2] of 1.82 ± 0.39. Regarding VQGIGIPLVTAIEIVSIWILSFIL [EDNRA], the protein stability index runs as follows: under setting [1], 3.02 ± 0.63; under setting [2], 2.42 ± 0.49. As to VRFDGYVIDGATALWCAAGAGHFE [FEM1B], the protein stability index runs as follows: under setting [1], 2.91 ± 0.6; under setting [2], 2.92 ± 0.64. As to VSAEGSHPDPAPFCADNPSELPPP [DVL3], the protein stability index by setting is: under setting [1], 5.25 ± 0.27; under setting [2], 5.32 ± 0.18. In the case of VSGGSRSLNMSRRDSESTRHDSET [PHTF1], the protein stability index runs as follows: under setting [1], 5.25 ± 0.26; under setting [2], 5.5 ± 0.14. Consider VTEHPLELIRVEVEILDLNDNSPS [PCDHGC5], for which the protein stability index by setting is: under setting [1], 2.92 ± 0.29; under setting [2], 3 ± 0.41. For the sequence VTSVSIELEKNFSNFPRQYFALRK [TRIM39], the protein stability index reads like this: under setting [1], 2.47 ± 0.25; under setting [2], 2.5 ± 0.15. On the same counts, the results for VVACDFSPDGALLATASYDTRVYI [WSB1] are 3.41 ± 0.6 and 2.74 ± 0.83. As for VVRYLLEQRADPNAKAHCGATALH [FEM1B], the protein stability index is, setting by setting: under setting [1], 2.23 ± 0.21; under setting [2], 2.34 ± 0.18. On the same counts, the results for VYLSPRDDGYSTKDSYSSRDYPSS [RBMX] are 3.21 ± 0.27 and 3.38 ± 0.43.

For VYSVSVDQKERCIIVRTTNKKYYK [DPCD], the protein stability index reads like this: under setting [1], 2.14 ± 0.14; under setting [2], 2.21 ± 0.38. As to WEYMHSPSENSKEAEILEVLRHPR [CPOX], the protein stability index runs as follows: under setting [1], 3.99 ± 0.12; under setting [2], 4.07 ± 0.32. On the same counts, the results for WLQNTHVYSWPKNKKNILLRLLRE [TRAF3IP2] are 2.08 ± 0.58 and 2.38 ± 0.42.

As to WLYYYAYKDFLWFFSKRFKSAAML [SOAT1], the protein stability index is, setting by setting: under setting [1], 2.15 ± 0.34; under setting [2], 2.29 ± 0.44. As to WPGASGSAQSLDRLGIMGAGLGA [ATP23], the protein stability index by setting is: (treatment: DMSO, c terminus: native) 2.55 ± 0.26; (treatment: MLN4924 1 uM, 8 h, c terminus: native) 2.43 ± 0.37.

For WTDSEVDSSCSGQPIHLWQFLKEL [SPDEF], the protein stability index amounted to 2.93 ± 0.24 under setting [1] and 3.1 ± 0.39 under setting [2].

Consider WTLQRRLTRLRTASGHEPGGSAVC [PLEKHN1], for which the protein stability index is 3 ± 0.23 under setting [1] and 3.06 ± 0.22 under setting [2]. With WVGTGLAAALAGLVGLATAAFGHV [CPOX], the protein stability index by setting is: under setting [1], 2.13 ± 0.37; under setting [2], 2.16 ± 0.3. As to YAHQMVRTDSREQKLDAFLQPLSK [MLH1], the protein stability index amounted to 2.98 ± 0.3 under setting [1] and 3.35 ± 0.35 under setting [2]. On the same counts, the results for YARQHCPLKNPTFLDYVRPRSWTC [SOAT1] are 2.12 ± 0.46 and 2.14 ± 0.53. For the sequence YDGYRLRVEFPRSGRGTGRGGGGG [SRSF1], the protein stability index is, setting by setting: under setting [1], 3.81 ± 0.26; under setting [2], 3.99 ± 0.25. Regarding YEADCLAAAYGGKAAPAAPPAARP [CEBPB], the protein stability index under setting [1] is 4.49 ± 0.15 and the protein stability index under setting [2] is 4.6 ± 0.2. The like results for YETVAAATSESTTVEPGKLDVGAT [DRICH1] were, in that order, 5.36 ± 0.2 and 5.43 ± 0.32. The sequence YFATFYSCTPRMNRRMVGPDVIPL [FAM189A2] yielded a protein stability index under setting [1] of 2.72 ± 0.27 and a protein stability index under setting [2] of 2.54 ± 0.55. As for YGHDYPRAAYQQVIQPALPGQPLP [TRAF3IP2], the protein stability index was 2.55 ± 0.71 under setting [1] and 3.25 ± 0.69 under setting [2]. The like results for YHPVKIGDLFNGRYHVIRKLGWGH [SRPK2] were, in that order, 2.79 ± 0.55 and 2.24 ± 0.22. The like results for YKPVVLLQGLSLIVTWFMLLYAQG [SLC19A2] were, in that order, 2.94 ± 0.42 and 3.02 ± 0.29. YLTVVFEHDAWFIFFMAAFAFSNG [SLC29A1] yielded a protein stability index under setting [1] of 3.18 ± 0.41 and a protein stability index under setting [2] of 2.92 ± 0.59. In turn, YNSSRFGEGVERELFVREPTGRLP [MYORG] yielded a protein stability index under setting [1] of 3.62 ± 0.22 and a protein stability index under setting [2] of 3.73 ± 0.43.

Take YPNYEFISDNSISWSAGLHNRYTE [FUT8]: the protein stability index is, setting by setting: under setting [1], 2.51 ± 0.1; under setting [2], 2.72 ± 0.36. Take YPTSDQEGDPGSKQPRKKRGRYRQ [LCOR]: the protein stability index is, setting by setting: under setting [1], 5.3 ± 0.23; under setting [2], 5.45 ± 0.27. Regarding YQKAAEEVEAKFKRYESHPVCADL [CHCHD3], the protein stability index by setting is: under setting [1], 4.26 ± 0.14; under setting [2], 4.25 ± 0.28. Turning to YRHVMLPKDIAKLVPKTHLMSESE [CKS1B], the protein stability index is, setting by setting: under setting [1], 3.75 ± 0.32; under setting [2], 3.85 ± 0.23. On to YSCACLASGSVLRLVDAVLGAEIR [HDAC6], for which the protein stability index runs as follows: under setting [1], 3 ± 0.68; under setting [2], 2.89 ± 0.66.

As for YSQASELPTDAVDCMSRELVSLTS [FBXO34], the protein stability index is 4.03 ± 0.14 under setting [1] and 4.11 ± 0.11 under setting [2].
